The text below walks through data of PMC3324464, “The GPI Anchor Signal Sequence Dictates the Folding and Functionality of the Als5 Adhesin from Candida albicans” (PLoS ONE, 2012).

For data set [1], the target named is T1, GST-Als5 (Candida albicans, UniProt Q5A8T7 20-1327).
T1 construct: source: E. coli BL21, purified (glutathione-agarose); not shown: GST, N-terminal, kept
T1 sequence: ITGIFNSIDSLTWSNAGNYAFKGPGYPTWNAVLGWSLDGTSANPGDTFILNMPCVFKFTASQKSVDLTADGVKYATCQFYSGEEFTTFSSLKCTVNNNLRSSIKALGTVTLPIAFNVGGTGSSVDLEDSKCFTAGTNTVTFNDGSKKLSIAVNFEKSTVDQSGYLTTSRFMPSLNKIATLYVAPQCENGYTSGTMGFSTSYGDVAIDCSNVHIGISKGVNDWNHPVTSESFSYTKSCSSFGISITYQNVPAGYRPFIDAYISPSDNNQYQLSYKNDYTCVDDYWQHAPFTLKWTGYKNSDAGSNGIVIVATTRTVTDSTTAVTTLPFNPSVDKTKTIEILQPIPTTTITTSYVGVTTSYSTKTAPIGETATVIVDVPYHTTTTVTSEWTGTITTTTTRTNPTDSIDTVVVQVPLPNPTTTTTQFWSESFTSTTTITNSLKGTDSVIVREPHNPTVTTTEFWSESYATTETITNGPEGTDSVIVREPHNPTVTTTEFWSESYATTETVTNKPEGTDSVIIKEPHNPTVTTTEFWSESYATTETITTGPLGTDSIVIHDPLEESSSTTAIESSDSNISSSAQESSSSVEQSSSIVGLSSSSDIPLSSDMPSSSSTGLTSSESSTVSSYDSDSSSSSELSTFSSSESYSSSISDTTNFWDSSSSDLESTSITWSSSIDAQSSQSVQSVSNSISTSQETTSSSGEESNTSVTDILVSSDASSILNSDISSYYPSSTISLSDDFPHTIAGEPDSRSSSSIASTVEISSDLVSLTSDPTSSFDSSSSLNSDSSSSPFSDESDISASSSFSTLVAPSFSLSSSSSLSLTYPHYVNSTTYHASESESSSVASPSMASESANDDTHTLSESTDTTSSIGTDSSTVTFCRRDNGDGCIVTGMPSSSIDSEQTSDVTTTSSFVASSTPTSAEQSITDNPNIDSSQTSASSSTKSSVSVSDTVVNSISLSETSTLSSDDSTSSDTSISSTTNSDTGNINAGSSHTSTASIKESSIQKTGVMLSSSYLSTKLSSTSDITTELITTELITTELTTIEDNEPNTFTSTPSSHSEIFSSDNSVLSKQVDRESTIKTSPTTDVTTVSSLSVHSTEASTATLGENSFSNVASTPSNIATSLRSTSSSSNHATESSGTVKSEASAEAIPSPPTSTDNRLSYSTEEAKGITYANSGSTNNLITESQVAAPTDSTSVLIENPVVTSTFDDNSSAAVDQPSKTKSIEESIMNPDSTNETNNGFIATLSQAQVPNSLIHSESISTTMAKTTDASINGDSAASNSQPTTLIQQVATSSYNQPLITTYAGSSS
The data set can be described thus: other fluorescence titration. To be noted: both partners purified.

Data set [2] addresses T1, GST-Als5. In words: other fluorescence titration; tryptophan fluorescence of 0.02 mg/ml protein, peptide titrated in; one-site saturation model; 42 °C. To be noted: both partners purified.
Data set [3] concerns the target T2, GST-Als5-SS (Candida albicans, UniProt Q5A8T7 20-1326, N-terminal GST tag (pGEX-6P-2) not cleaved, omitted here; expressed in E. coli, unglycosylated. The 4044 bp insert implies the full ORF, including the N-terminal secretion signal, although the figure). The data set can be described thus: other fluorescence titration; van't Hoff plots of the association constants from the fluorescence titrations at different temperatures; ΔH° from the slope. To be noted: both partners purified.

Data set [4] concerns the target T1, GST-Als5. Described as above. The settings on record: both partners purified.
The target in data set [5] is T2, GST-Als5-SS. The data set can be described thus: other fluorescence titration; tryptophan fluorescence of 0.02 mg/ml protein, peptide titrated in; one-site saturation model; 52 °C (secondary structure of both proteins mildly perturbed at this temperature). To be noted: both partners purified.
The target of data set [6] is T1, GST-Als5. Described as above. To be noted: both partners purified.
Data set [7] can be described thus: Aggregation by transmission electron microscopy. Format: physicochemical. The settings on record: 37 °C, 2 weeks; 0.4 µM / 0.09 mg/ml (method). The procedure: Transmission Electron Microscopy (TEM)
TEM studies were carried out on a JEOL 2100F. The proteins (0.09 mg/ml) were incubated at 37 °C for 2 weeks prior to the measurements. The proteins were spotted on a carbon-coated copper grid and positively stained with 2% uranyl acetate. The sample was then dried and examined by TEM using a 210 kV accelerating voltage.
Figure 5 Transmission electron microscope images showing aggregation by GST-Als5. […] The scale bar in each panel represents 100 nm. Left panel: 10,000X magnification. Right panel: 25,000X magnification.
(A) Prediction of β-aggregation potential for the GPI anchor attachment signal sequence (SS). The prediction of β-aggregation potential for the SS was done using TANGO (residues 1328–1347). Also shown is the propensity for α-helix, β-turn and β-sheet formation in the unfolded polypeptide chain as predicted by TANGO. […] (B). Transmission electron microscope images showing aggregation by SS and SS in the presence of GST-Als5. The samples, SS (40.0 µM), GST-Als5 (0.4 µM) and GST-Als5 (0.4 µM) + SS (40.0 µM) were incubated as 37 °C for two days before TEM images were recorded.

Broadly, the Kd is the constant that tells how readily two partners part at equilibrium.

“Also recorded” adds a separate entry of the source.

For the molecule AYKSLMT (source: synthetic peptide (USV Ltd.)), the dissociation constant (Kd) in data set [1] was 13 nM; in data set [2] it was 9 nM; in data set [5], 2 nM; in data set [6], 12 nM. The dH is 18.6 kcal/mol in data set [3] and -0.803 kcal/mol in data set [4].

B1: GST-Als5-SS: GST fusion of Als5 with the GPI-anchor attachment signal sequence, expressed in E. coli (protein)
chain: ITGIFNSIDSLTWSNAGNYAFKGPGYPTWNAVLGWSLDGTSANPGDTFILNMPCVFKFTASQKSVDLTADGVKYATCQFYSGEEFTTFSSLKCTVNNNLRSSIKALGTVTLPIAFNVGGTGSSVDLEDSKCFTAGTNTVTFNDGSKKLSIAVNFEKSTVDQSGYLTTSRFMPSLNKIATLYVAPQCENGYTSGTMGFSTSYGDVAIDCSNVHIGISKGVNDWNHPVTSESFSYTKSCSSFGISITYQNVPAGYRPFIDAYISPSDNNQYQLSYKNDYTCVDDYWQHAPFTLKWTGYKNSDAGSNGIVIVATTRTVTDSTTAVTTLPFNPSVDKTKTIEILQPIPTTTITTSYVGVTTSYSTKTAPIGETATVIVDVPYHTTTTVTSEWTGTITTTTTRTNPTDSIDTVVVQVPLPNPTTTTTQFWSESFTSTTTITNSLKGTDSVIVREPHNPTVTTTEFWSESYATTETITNGPEGTDSVIVREPHNPTVTTTEFWSESYATTETVTNKPEGTDSVIIKEPHNPTVTTTEFWSESYATTETITTGPLGTDSIVIHDPLEESSSTTAIESSDSNISSSAQESSSSVEQSSSIVGLSSSSDIPLSSDMPSSSSTGLTSSESSTVSSYDSDSSSSSELSTFSSSESYSSSISDTTNFWDSSSSDLESTSITWSSSIDAQSSQSVQSVSNSISTSQETTSSSGEESNTSVTDILVSSDASSILNSDISSYYPSSTISLSDDFPHTIAGEPDSRSSSSIASTVEISSDLVSLTSDPTSSFDSSSSLNSDSSSSPFSDESDISASSSFSTLVAPSFSLSSSSSLSLTYPHYVNSTTYHASESESSSVASPSMASESANDDTHTLSESTDTTSSIGTDSSTVTFCRRDNGDGCIVTGMPSSSIDSEQTSDVTTTSSFVASSTPTSAEQSITDNPNIDSSQTSASSSTKSSVSVSDTVVNSISLSETSTLSSDDSTSSDTSISSTTNSDTGNINAGSSHTSTASIKESSIQKTGVMLSSSYLSTKLSSTSDITTELITTELITTELTTIEDNEPNTFTSTPSSHSEIFSSDNSVLSKQVDRESTIKTSPTTDVTTVSSLSVHSTEASTATLGENSFSNVASTPSNIATSLRSTSSSSNHATESSGTVKSEASAEAIPSPPTSTDNRLSYSTEEAKGITYANSGSTNNLITESQVAAPTDSTSVLIENPVVTSTFDDNSSAAVDQPSKTKSIEESIMNPDSTNETNNGFIATLSQAQVPNSLIHSESISTTMAKTTDASINGDSAASNSQPTTLIQQVATSSYNQPLITTYAGSS
modifications: left off: GST, N-terminal, kept
B1: in data set [7], the “aggregation (in words)” value is listed as “showed very poor aggregation; also recorded: showed no propensity for aggregation”.
